The labels stand for the following.
B1: His-tagged Loqs-PD, wild type [Drosophila melanogaster] / Drosophila melanogaster Dicer-2 (Dcr-2), wild type [Drosophila melanogaster] (parent complex)
chain 1: MDQENFHGSSLPQQLQNLHIQPQQASPNPVQTGFAPRRHYNNLVGLGNGNAVSGSPVKGAPLGQRHVKLKKEKISAQVAQLSQPGQLQLSDVGDPALAGGSGLQGGVGLMGVILPSDEALKFVSETDANGLAMKTPVSILQELLSRRGITPGYELVQIEGAIHEPTFRFRVSFKDKDTPFTAMGAGRSKKEAKHAAARALIDKLIGAQLPESPSSSAGPSVTGLTVAGSGGDGNANATGGGDASDKTVGNPIGWLQEMCMQRRWPPPSYETETEVGLPHERLFTIACSILNYREMGKGKSKKIAKRLAAHRMWMRLQETPIDSGKISDSICGELEGEVSIIQDIDRYEQVSKDFEFIKI
chain 2: MEDVEIKPRGYQLRLVDHLTKSNGIVYLPTGSGKTFVAILVLKRFSQDFDKPIESGGKRALFMCNTVELARQQAMAVRRCTNFKVGFYVGEQGVDDWTRGMWSDEIKKNQVLVGTAQVFLDMVTQTYVALSSLSVVIIDECHHGTGHHPFREFMRLFTIANQTKLPRVVGLTGVLIKGNEITNVATKLKELEITYRGNIITVSDTKEMENVMLYATKPTEVMVSFPHQEQVLTVTRLISAEIEKFYVSLDLMNIGVQPIRRSKSLQCLRDPSKKSFVKQLFNDFLYQMKEYGIYAASIAIISLIVEFDIKRRQAETLSVKLMHRTALTLCEKIRHLLVQKLQDMTYDDDDDNVNTEEVIMNFSTPKVQRFLMSLKVSFADKDPKDICCLVFVERRYTCKCIYGLLLNYIQSTPELRNVLTPQFMVGRNNISPDFESVLERKWQKSAIQQFRDGNANLMICSSVLEEGIDVQACNHVFILDPVKTFNMYVQSKGRARTTEAKFVLFTADKEREKTIQQIYQYRKAHNDIAEYLKDRVLEKTEPELYEIKGHFQDDIDPFTNENGAVLLPNNALAILHRYCQTIPTDAFGFVIPWFHVLQEDERDRIFGVSAKGKHVISINMPVNCMLRDTIYSDPMDNVKTAKISAAFKACKVLYSLGELNERFVPKTLKERVASIADVHFEHWNKYGDSVTATVNKADKSKDRTYKTECPLEFYDALPRVGEICYAYEIFLEPQFESCEYTEHMYLNLQTPRNYAILLRNKLPRLAEMPLFSNQGKLHVRVANAPLEVIIQNSEQLELLHQFHGMVFRDILKIWHPFFVLDRRSKENSYLVVPLILGAGEQKCFDWELMTNFRRLPQSHGSNVQQREQQPAPRPEDFEGKIVTQWYANYDKPMLVTKVHRELTPLSYMEKNQQDKTYYEFTMSKYGNRIGDVVHKDKFMIEVRDLTEQLTFYVHNRGKFNAKSKAKMKVILIPELCFNFNFPGDLWLKLIFLPSILNRMYFLLHAEALRKRFNTYLNLHLLPFNGTDYMPRPLEIDYSLKRNVDPLGNVIPTEDIEEPKSLLEPMPTKSIEASVANLEITEFENPWQKYMEPVDLSRNLLSTYPVELDYYYHFSVGNVCEMNEMDFEDKEYWAKNQFHMPTGNIYGNRTPAKTNANVPALMPSKPTVRGKVKPLLILQKTVSKEHITPAEQGEFLAAITASSAADVFDMERLEILGDSFLKLSATLYLASKYSDWNEGTLTEVKSKLVSNRNLLFCLIDADIPKTLNTIQFTPRYTWLPPGISLPHNVLALWRENPEFAKIIGPHNLRDLALGDEESLVKGNCSDINYNRFVEGCRANGQSFYAGADFSSEVNFCVGLVTIPNKVIADTLEALLGVIVKNYGLQHAFKMLEYFKICRADIDKPLTQLLNLELGGKKMRANVNTTEIDGFLINHYYLEKNLGYTFKDRRYLLQALTHPSYPTNRITGSYQELEFIGDAILDFLISAYIFENNTKMNPGALTDLRSALVNNTTLACICVRHRLHFFILAENAKLSEIISKFVNFQESQGHRVTNYVRILLEEADVQPTPLDLDDELDMTELPHANKCISQEAEKGVPPKGEFNMSTNVDVPKALGDVLEALIAAVYLDCRDLQRTWEVIFNLFEPELQEFTRKVPINHIRQLVEHKHAKPVFSSPIVEGETVMVSCQFTCMEKTIKVYGFGSNKDQAKLSAAKHALQQLSKCDA

Variants of B1 are the subject of the experiment. The experiment in a line: pull-down; parent: 1; read off a plot.
Take chain 1 MDQENFHGSSLPQQLQNLHIQPQQASPNPVQTGFAPRRHYNNLVGLGNGNAVSGSPVKGAPLGQRHVKLKKEKISAQVAQLSQPGQLQLSDVGDPALAGGSGLQGGVGLMGVILPSDEALKFVSETDANGLAMKTPVSILQELLSRRGITPGYELVQIEGAIHEPTFRFRVSFKDKDTPFTAMGAGRSKKEAKHAAARALIDKLIGAQLPESPSSSAGPSVTGLTVAGSGGDGNANATGGGDASDKTVGNPIGWLQEMCMQRRWPPPSYETETEVGLPHERLFTIACSILNYREMGKGKSKKIAKRLAAHRMWMRLQETPIDSGKISDSICGELEGEVSIIQDIDRYEQVSKDFEDIKI [chain 1 F356D]: the ratio to parent was approximately 0.06. In the case of chain 1 MDQENFHGSSLPQQLQNLHIQPQQASPNPVQTGFAPRRHYNNLVGLGNGNAVSGSPVKGAPLGQRHVKLKKEKISAQVAQLSQPGQLQLSDVGDPALAGGSGLQGGVGLMGVILPSDEALKFVSETDANGLAMKTPVSILQELLSRRGITPGYELVQIEGAIHEPTFRFRVSFKDKDTPFTAMGAGRSKKEAKHAAARALIDKLIGAQLPESPSSSAGPSVTGLTVAGSGGDGNANATGGGDASDKTVGNPIGWLQEMCMQRRWPPPSYETETEVGLPHERLFTIACSILNYREMGKGKSKKIAKRLAAHRMWMRLQETPIDSGKISDSICGELEGEVSIIQDIDRYEQVSKDFEFIKD [chain 1 I359D] it was approximately 0.04; in that of chain 1 MDQENFHGSSLPQQLQNLHIQPQQASPNPVQTGFAPRRHYNNLVGLGNGNAVSGSPVKGAPLGQRHVKLKKEKISAQVAQLSQPGQLQLSDVGDPALAGGSGLQGGVGLMGVILPSDEALKFVSETDANGLAMKTPVSILQELLSRRGITPGYELVQIEGAIHEPTFRFRVSFKDKDTPFTAMGAGRSKKEAKHAAARALIDKLIGAQLPESPSSSAGPSVTGLTVAGSGGDGNANATGGGDASDKTVGNPIGWLQEMCMQRRWPPPSYETETEVGLPHERLFTIACSILNYREMGKGKSKKIAKRLAAHRMWMRLQETPIDSGKISDSICGELEGEVSIIQDIDRAEQVSKDFEFIKI [chain 1 Y347A], approximately 0.1.

The record behind these values is PMC9279154 (Nature, 2022).
